Series [1] concerns the molecule itself. Briefly: SEC; […]; 10 mM Tris-HCl pH 8.0, 150 mM NaCl; 0.2 ml/min; […]. Background: Size exclusion chromatography separates by hydrodynamic size, large species first.
The series “SEC” deals with the molecule itself. Nature of the series: SEC.

B1: AtaR2 antitoxin (natural protein)
chain: MKPESKEAPINIRAKASQRDLIDMAANLVAKSRTDFMLDAACREAQDILLDQRLFILDDEQYDAFLAALDAPITAERQAKINALMNRKSPWE
A word on the stoichiometry N: it is the number of molecules, sites or subunits per partner or assembly. In the case of B1, the “stoichiometry N” value in series [1] was found to be 4.

B2: AtaT2 toxin (enzyme)
chain: MGITAPTPLTSEHNLADFCCSDHGMNEWLKKKALKNHSSGLSRVYVICIANTRQVIGYYCLSTGSIQRNLAPGAMRRNAPESLPVVVLGRLAIDQAWAGKGLGVALLKDAVYRTMSIAQQVGVRALIVHALDDSVRNFYLKYAFVPSPFQSLTLLYPITLE
B2: the “stoichiometry N” value in “SEC” is 2.

(Values after publication PMC7470980, “Mechanism of translation inhibition by type II GNAT toxin AtaT2” (Nucleic Acids Research, 2020).)
